Data on one molecule can be found in paper PMC10798921, “Target-induced hot spot construction for sensitive and selective surface-enhanced Raman scattering detection of matrix metalloproteinase MMP-9”.

What all share (conditions): protein: recombinant; label: 13-nm gold nanosphere via DNA1 3' thiol; partial duplex: aptamer 5' part pairs with DNA1; aptamer 3' overhang; DNA1 3' AAA tail
In one data set the target is MMP-9 (human, UniProt P14780 107-707). Briefly: SERS nanosensor (aptamer strand displacement, AuNS aggregation; UV-vis, DLS, TEM); MMP-9 10 ng/mL (selectivity), 350 ng/mL (UV-vis, DLS, TEM); AuNS-2 with DNA2/DTNB present; Assay buffer for MMP-9 in solution not in the material; duplex annealed in 8 mM phosphate, 0.8 mM MgCl2, 20 mM NaCl; cell supernatant assay at 37 C for 2 h.

For a further data set, the target named is MMP-3 (human, UniProt P08254 100-477). Briefly: SERS nanosensor (aptamer strand displacement); 100 ng/mL; AuNS-2 with DNA2/DTNB present; Assay buffer for MMP-9 in solution not in the material; duplex annealed in 8 mM phosphate, 0.8 mM MgCl2, 20 mM NaCl; cell supernatant assay at 37 C for 2 h.
A further data set addresses MMP-2 (human, UniProt P08253 110-660). Described as above.
The next data set concerns the target T1, MMP-7 (human, UniProt P09237 95-267).
T1 sequence: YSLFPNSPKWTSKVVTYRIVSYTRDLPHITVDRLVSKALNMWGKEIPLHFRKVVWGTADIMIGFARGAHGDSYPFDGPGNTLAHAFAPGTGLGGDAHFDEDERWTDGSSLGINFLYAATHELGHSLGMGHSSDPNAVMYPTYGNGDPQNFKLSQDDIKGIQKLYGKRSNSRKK
Described as above.

MMP-9, sequence (P14780 107-707): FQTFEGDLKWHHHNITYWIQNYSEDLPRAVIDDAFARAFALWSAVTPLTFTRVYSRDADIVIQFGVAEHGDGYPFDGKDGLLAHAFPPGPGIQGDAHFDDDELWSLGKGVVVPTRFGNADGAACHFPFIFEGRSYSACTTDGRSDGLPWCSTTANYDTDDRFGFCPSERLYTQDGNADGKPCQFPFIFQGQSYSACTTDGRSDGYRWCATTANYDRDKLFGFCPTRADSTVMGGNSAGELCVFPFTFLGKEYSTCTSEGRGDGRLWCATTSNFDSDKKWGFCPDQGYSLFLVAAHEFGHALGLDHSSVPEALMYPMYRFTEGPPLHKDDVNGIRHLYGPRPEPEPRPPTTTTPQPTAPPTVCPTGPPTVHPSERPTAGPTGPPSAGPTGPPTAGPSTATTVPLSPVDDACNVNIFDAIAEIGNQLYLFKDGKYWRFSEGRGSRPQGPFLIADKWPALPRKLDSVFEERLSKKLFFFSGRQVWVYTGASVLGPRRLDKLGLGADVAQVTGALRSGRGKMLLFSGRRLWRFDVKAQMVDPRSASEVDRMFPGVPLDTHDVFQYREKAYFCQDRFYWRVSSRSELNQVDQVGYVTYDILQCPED
MMP-3, sequence (P08254 100-477): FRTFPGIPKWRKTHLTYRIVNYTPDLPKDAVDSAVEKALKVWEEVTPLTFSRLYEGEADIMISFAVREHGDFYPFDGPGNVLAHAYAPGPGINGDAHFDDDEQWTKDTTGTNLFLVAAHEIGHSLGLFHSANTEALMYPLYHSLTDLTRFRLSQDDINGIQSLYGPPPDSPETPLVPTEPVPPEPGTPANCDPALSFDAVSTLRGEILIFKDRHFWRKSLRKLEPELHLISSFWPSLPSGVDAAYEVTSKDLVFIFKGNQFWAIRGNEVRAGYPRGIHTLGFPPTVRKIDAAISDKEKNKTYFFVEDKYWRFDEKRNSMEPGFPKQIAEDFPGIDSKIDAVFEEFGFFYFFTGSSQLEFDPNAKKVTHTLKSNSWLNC
MMP-2, sequence (P08253 110-660): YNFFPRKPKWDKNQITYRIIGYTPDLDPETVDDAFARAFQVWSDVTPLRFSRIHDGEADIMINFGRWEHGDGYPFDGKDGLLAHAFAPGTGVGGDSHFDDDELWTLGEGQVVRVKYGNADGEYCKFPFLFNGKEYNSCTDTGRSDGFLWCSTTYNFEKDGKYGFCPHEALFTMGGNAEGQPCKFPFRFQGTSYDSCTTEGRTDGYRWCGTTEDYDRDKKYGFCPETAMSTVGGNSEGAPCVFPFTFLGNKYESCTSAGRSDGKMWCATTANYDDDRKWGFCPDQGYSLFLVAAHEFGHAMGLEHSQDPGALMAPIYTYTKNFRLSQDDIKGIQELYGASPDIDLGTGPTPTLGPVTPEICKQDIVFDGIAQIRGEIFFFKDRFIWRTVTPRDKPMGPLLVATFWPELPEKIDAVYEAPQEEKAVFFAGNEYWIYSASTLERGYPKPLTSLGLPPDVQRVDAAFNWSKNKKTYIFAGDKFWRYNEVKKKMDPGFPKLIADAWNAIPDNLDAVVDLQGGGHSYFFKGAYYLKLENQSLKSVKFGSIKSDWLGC

B1: MMP-9 aptamer (annealed to DNA1 on AuNS-1) (mixed)
DNA 1: TCGTATGGCACGGGGTTGGTGTTGGGTTGG
DNA 2: GGTGTGCCATACGAAA
modifications: DNA1 3' ThioMC3-D
As for B1, the binding result in the data set with MMP-9 is “binds”; with MMP-3, “no binding”; with MMP-2 it was “no binding”; with MMP-7, “no binding”.
